Numbering of substitutions follows the chain as printed.
B1: NRC3_wobSeed121_DR5_G21A_o1 (dsDNA)
DNA 1: GCCAAACTAGGTCACCGGAAAGTCAAAGTCCGCATGGCGATTGACAGCGTAGAATGAAGG
DNA 2: CCTTCATTCTACGCTGTCAATCGCCATGCGGACTTTGACTTTCCGGTGACCTAGTTTGGC
B2: NRC3_wobSeed118_DR4_C7A_o1 (dsDNA)
DNA 1: GCTTACAAAGGTGAGCTGAGGTCGTTGATCCAACTCGCGATTGACAGCGTAGAATGAAGG
DNA 2: CCTTCATTCTACGCTGTCAATCGCGAGTTGGATCAACGACCTCAGCTCACCTTTGTAAGC
B3: NRC3_wobSeed89_DR3_C22T_o1 (dsDNA)
DNA 1: GCCTATGTAGGTTAAGGGGGTTATTCAGTTTGAAAGGCGATTGACAGCGTAGAATGAAGG
DNA 2: CCTTCATTCTACGCTGTCAATCGCCTTTCAAACTGAATAACCCCCTTAACCTACATAGGC
B4: NRC3_wobSeed136_DR5_T27A_o1 (dsDNA)
DNA 1: GCTAGCCTAGGTCATTCAGGGGCCAGAATAGAAAGCGCGATTGACAGCGTAGAATGAAGG
DNA 2: CCTTCATTCTACGCTGTCAATCGCGCTTTCTATTCTGGCCCCTGAATGACCTAGGCTAGC
B5: NRC3_wobSeed85_DR3_G17T_o1 (dsDNA)
DNA 1: GCCGTCCAAGGTCAGATAGGTCAGTGAATGCCGAGTGCGATTGACAGCGTAGAATGAAGG
DNA 2: CCTTCATTCTACGCTGTCAATCGCACTCGGCATTCACTGACCTATCTGACCTTGGACGGC
B6: NRC3_wobSeed137_DR5_T13A_o1 (dsDNA)
DNA 1: GCATATGTAGGTAACATCCGGGTCATTCAGGCTATGGCGATTGACAGCGTAGAATGAAGG
DNA 2: CCTTCATTCTACGCTGTCAATCGCCATAGCCTGAATGACCCGGATGTTACCTACATATGC
B7: NRC3_wobSeed66_DR2_A22C_o1 (dsDNA)
DNA 1: GCAATACAGGGTCACTAGGCCCGAGTAGGTACGAATGCGATTGACAGCGTAGAATGAAGG
DNA 2: CCTTCATTCTACGCTGTCAATCGCATTCGTACCTACTCGGGCCTAGTGACCCTGTATTGC
B8: NRC3_wobSeed66_DR2_G9C_o1 (dsDNA)
DNA 1: B7 DNA 1 with G9C, C22A
DNA 2: B7 DNA 2 with G39T, C52G
B9: NRC3_wobSeed6_DR0_T22C_o1 (dsDNA)
DNA 1: GCCCTAGCAGGCCAGGGTCACCCAAGCATTTCGCTTGCGATTGACAGCGTAGAATGAAGG
DNA 2: CCTTCATTCTACGCTGTCAATCGCAAGCGAAATGCTTGGGTGACCCTGGCCTGCTAGGGC
B10: NRC3_wobSeed130_DR5_T15A_o1 (dsDNA)
DNA 1: GCCTCGAAAGGTCGAGCTCAGGTGAGTATACCAAACGCGATTGACAGCGTAGAATGAAGG
DNA 2: CCTTCATTCTACGCTGTCAATCGCGTTTGGTATACTCACCTGAGCTCGACCTTTCGAGGC
B11: NRC3_wobSeed125_DR5_A7G_o1 (dsDNA)
DNA 1: GCCCTTGCGGGTCACTGACAGGTTATAGCATTTGGAGCGATTGACAGCGTAGAATGAAGG
DNA 2: CCTTCATTCTACGCTGTCAATCGCTCCAAATGCTATAACCTGTCAGTGACCCGCAAGGGC
B12: NRC3_wobSeed93_DR3_A8G_o1 (dsDNA)
DNA 1: GCAGTCAGAGTTCATCTAGGTAACGTAAGATATGCTGCGATTGACAGCGTAGAATGAAGG
DNA 2: CCTTCATTCTACGCTGTCAATCGCAGCATATCTTACGTTACCTAGATGAACTCTGACTGC
B13: NRC3_wobSeed93_DR3_A18T_o1 (dsDNA)
DNA 1: B12 DNA 1 with G8A, A18T
DNA 2: B12 DNA 2 with T43A, C53T
B14: NRC3_wobSeed43_DR1_C8A_o1 (dsDNA)
DNA 1: GCCCAGAAAGGTGAAAGGTAACTCAGTCTGGTACGCGCGATTGACAGCGTAGAATGAAGG
DNA 2: CCTTCATTCTACGCTGTCAATCGCGCGTACCAGACTGAGTTACCTTTCACCTTTCTGGGC
B15: NRC3_wobSeed10_DR0_G6C_o1 (dsDNA)
DNA 1: GCATCCAAAGGTCGAGGTGAGTATAGAGAAAGGGAAGCGATTGACAGCGTAGAATGAAGG
DNA 2: CCTTCATTCTACGCTGTCAATCGCTTCCCTTTCTCTATACTCACCTCGACCTTTGGATGC
B16: NRC3_wobSeed124_DR5_C24G_o1 (dsDNA)
DNA 1: GCCCTACTGGGCCATTCAGAGGTGATTGATCATATGGCGATTGACAGCGTAGAATGAAGG
DNA 2: CCTTCATTCTACGCTGTCAATCGCCATATGATCAATCACCTCTGAATGGCCCAGTAGGGC
B17: NRC3_wobSeed40_DR1_T15C_o1 (dsDNA)
DNA 1: GCTAGCCTAGGTCACGGGCCAGTATACCACGCGAACGCGATTGACAGCGTAGAATGAAGG
DNA 2: CCTTCATTCTACGCTGTCAATCGCGTTCGCGTGGTATACTGGCCCGTGACCTAGGCTAGC
B18: NRC3_wobSeed40_DR1_A24T_o1 (dsDNA)
DNA 1: B17 DNA 1 with C15T, A24T
DNA 2: B17 DNA 2 with T37A, G46A
B19: NRC3_wobSeed58_DR2_A22T_o1 (dsDNA)
DNA 1: GCATCGAAAGGTCGTGAGGTGTGTATACAGAAAGGCGCGATTGACAGCGTAGAATGAAGG
DNA 2: CCTTCATTCTACGCTGTCAATCGCGCCTTTCTGTATACACACCTCACGACCTTTCGATGC
B20: NRC3_wobSeed5_DR0_T19A_o1 (dsDNA)
DNA 1: GCCCTTACGGGTCAAGGTAATAGCACGGGTGGTACGGCGATTGACAGCGTAGAATGAAGG
DNA 2: CCTTCATTCTACGCTGTCAATCGCCGTACCACCCGTGCTATTACCTTGACCCGTAAGGGC
B21: NRC3_wobSeed32_DR1_A25C_o1 (dsDNA)
DNA 1: GCTCTTGTAGATCAAAGGTTAAGACAGCCGAAGCCTGCGATTGACAGCGTAGAATGAAGG
DNA 2: CCTTCATTCTACGCTGTCAATCGCAGGCTTCGGCTGTCTTAACCTTTGATCTACAAGAGC
B22: NRC3_wobSeed138_DR5_T5C_o1 (dsDNA)
DNA 1: GCGACACAGGGTCAGCTAGAGGCCAGAGTATGGAAAGCGATTGACAGCGTAGAATGAAGG
DNA 2: CCTTCATTCTACGCTGTCAATCGCTTTCCATACTCTGGCCTCTAGCTGACCCTGTGTCGC
B23: NRC3_wobSeed138_DR5_A6C_o1 (dsDNA)
DNA 1: B22 DNA 1 with C5T, A6C
DNA 2: B22 DNA 2 with T55G, G56A
B24: NRC3_wobSeed2_DR0_T12C_o1 (dsDNA)
DNA 1: GCCCTAGTTGGCCAAGGTCACACACGCTATAGGTACGCGATTGACAGCGTAGAATGAAGG
DNA 2: CCTTCATTCTACGCTGTCAATCGCGTACCTATAGCGTGTGTGACCTTGGCCAACTAGGGC
B25: NRC3_wobSeed82_DR3_G20T_o1 (dsDNA)
DNA 1: GCATCGAAAGGTCGACGAGTTGAGTATACACCGTTTGCGATTGACAGCGTAGAATGAAGG
DNA 2: CCTTCATTCTACGCTGTCAATCGCAAACGGTGTATACTCAACTCGTCGACCTTTCGATGC
B26: NRC3_wobSeed117_DR4_G26T_o1 (dsDNA)
DNA 1: GCCGTCAAAGTTCAACTAAGGTAACTTAAAGCACGCGCGATTGACAGCGTAGAATGAAGG
DNA 2: CCTTCATTCTACGCTGTCAATCGCGCGTGCTTTAAGTTACCTTAGTTGAACTTTGACGGC
B27: NRC3_wobSeed117_DR4_G20T_o1 (dsDNA)
DNA 1: B26 DNA 1 with G20T, T26G
DNA 2: B26 DNA 2 with A35C, C41A
B28: NRC3_wobSeed36_DR1_T25C_o1 (dsDNA)
DNA 1: GCCCGACTGGGGCAAAGGTTACCACACTCAGTACGAGCGATTGACAGCGTAGAATGAAGG
DNA 2: CCTTCATTCTACGCTGTCAATCGCTCGTACTGAGTGTGGTAACCTTTGCCCCAGTCGGGC
B29: NRC3_wobSeed47_DR1_T18G_o1 (dsDNA)
DNA 1: GCGGAACGAGGGCAAAGGTGATAGCATCTGTCGACGGCGATTGACAGCGTAGAATGAAGG
DNA 2: CCTTCATTCTACGCTGTCAATCGCCGTCGACAGATGCTATCACCTTTGCCCTCGTTCCGC
B30: NRC3_wobSeed73_DR3_A23G_o1 (dsDNA)
DNA 1: GCCAAACTAGGTCACAGAGGTCGAAGTCCGTGCGTAGCGATTGACAGCGTAGAATGAAGG
DNA 2: CCTTCATTCTACGCTGTCAATCGCTACGCACGGACTTCGACCTCTGTGACCTAGTTTGGC
B31: NRC3_wobSeed142_DR5_G13T_o1 (dsDNA)
DNA 1: GCATACCAAGGTTATCGTGAGGTCGTTGATACTAACGCGATTGACAGCGTAGAATGAAGG
DNA 2: CCTTCATTCTACGCTGTCAATCGCGTTAGTATCAACGACCTCACGATAACCTTGGTATGC
B32: NRC3_wobSeed120_DR4_A6C_o1 (dsDNA)
DNA 1: GCCCGCGTAGGTTACGAGGGGGCATTCAGTGCGAATGCGATTGACAGCGTAGAATGAAGG
DNA 2: CCTTCATTCTACGCTGTCAATCGCATTCGCACTGAATGCCCCCTCGTAACCTACGCGGGC
B33: NRC3_wobSeed120_DR4_G20T_o1 (dsDNA)
DNA 1: B32 DNA 1 with C6A, G20T
DNA 2: B32 DNA 2 with C41A, G55T

molecular target: RARa:RXRa (Homo sapiens, UniProt P10276;P19793 full;full); test: no ligand; PBM; 270 nM : 90 nM RXRa; PBS pH 7.4, 2% milk, 0.02% Triton X-100, 1 mM DTT, BSA, 0.4 mg/ml salmon testes DNA; conditions: tags: His kept;His cleaved; copies: 1;1; label: surface-attached array probe
In short: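 Custom Agilent 4×180K protein-binding microarrays carried double-stranded probes, each with a 34-nt variable region. These regions held direct-repeat seeds, single-nucleotide variants, half-site ablations and random human genomic background sequences. Ligand-free nuclear receptor dimers were incubated on the arrays for 1 h, antibodies against each partner (one per run) detected binding, and scanned fluorescence was regression-normalized. Binding z-scores take the random background probes as reference.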

Sequence of RARa:RXRa (P10276 whole entry, chain 1 of 2): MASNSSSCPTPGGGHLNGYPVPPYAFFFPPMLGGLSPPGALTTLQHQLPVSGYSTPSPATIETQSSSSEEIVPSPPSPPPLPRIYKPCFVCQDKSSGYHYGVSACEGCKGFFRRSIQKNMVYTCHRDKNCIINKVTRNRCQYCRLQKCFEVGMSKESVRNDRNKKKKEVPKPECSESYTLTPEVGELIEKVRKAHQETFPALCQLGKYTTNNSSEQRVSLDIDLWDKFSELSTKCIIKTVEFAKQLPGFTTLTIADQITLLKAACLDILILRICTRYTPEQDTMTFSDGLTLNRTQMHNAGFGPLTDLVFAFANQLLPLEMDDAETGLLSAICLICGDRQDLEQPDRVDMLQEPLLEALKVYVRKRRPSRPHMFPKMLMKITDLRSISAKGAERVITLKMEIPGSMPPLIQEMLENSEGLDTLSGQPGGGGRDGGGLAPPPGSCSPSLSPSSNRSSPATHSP
Sequence of RARa:RXRa (P19793 whole entry, chain 2 of 2): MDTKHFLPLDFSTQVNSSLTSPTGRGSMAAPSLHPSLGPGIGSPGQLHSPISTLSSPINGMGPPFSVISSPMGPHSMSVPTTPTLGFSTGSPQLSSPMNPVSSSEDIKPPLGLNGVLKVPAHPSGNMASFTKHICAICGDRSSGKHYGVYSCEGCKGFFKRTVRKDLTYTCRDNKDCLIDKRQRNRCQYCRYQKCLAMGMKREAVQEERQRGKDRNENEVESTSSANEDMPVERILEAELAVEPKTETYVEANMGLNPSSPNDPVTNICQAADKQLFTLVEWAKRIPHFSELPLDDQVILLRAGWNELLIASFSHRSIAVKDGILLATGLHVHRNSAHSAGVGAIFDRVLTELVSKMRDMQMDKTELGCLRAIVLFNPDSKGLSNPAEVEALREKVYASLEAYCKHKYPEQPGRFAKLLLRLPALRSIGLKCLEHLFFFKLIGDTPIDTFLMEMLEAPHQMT

Binder | binding signal
B1 | 3.41 PBM z-score against 500 random probes
B2 | 3.12 PBM z-score against 500 random probes
B3 | 3.33 PBM z-score against 500 random probes
B4 | 3.51 PBM z-score against 500 random probes
B5 | 4.18 PBM z-score against 500 random probes
B6 | 3.23 PBM z-score against 500 random probes
B7 | 3.99 PBM z-score against 500 random probes
B8 | 0.46 PBM z-score against 500 random probes
B9 | 3.89 PBM z-score against 500 random probes
B10 | 3.92 PBM z-score against 500 random probes
B11 | 4.21 PBM z-score against 500 random probes
B12 | 3.62 PBM z-score against 500 random probes
B13 | 3.45 PBM z-score against 500 random probes
B14 | 3.8 PBM z-score against 500 random probes
B15 | 3.47 PBM z-score against 500 random probes
B16 | 0.45 PBM z-score against 500 random probes
B17 | 3.59 PBM z-score against 500 random probes

Binder | binding signal
B18 | 3.16 PBM z-score against 500 random probes
B19 | 4.09 PBM z-score against 500 random probes
B20 | 3.77 PBM z-score against 500 random probes
B21 | 3.05 PBM z-score against 500 random probes
B22 | 4.25 PBM z-score against 500 random probes
B23 | 4.15 PBM z-score against 500 random probes
B24 | 3.86 PBM z-score against 500 random probes
B25 | 3 PBM z-score against 500 random probes
B26 | 4.28 PBM z-score against 500 random probes
B27 | 4.13 PBM z-score against 500 random probes
B28 | 3.7 PBM z-score against 500 random probes
B29 | 3.09 PBM z-score against 500 random probes
B30 | 4.06 PBM z-score against 500 random probes
B31 | 3.65 PBM z-score against 500 random probes
B32 | 3.19 PBM z-score against 500 random probes
B33 | 0.47 PBM z-score against 500 random probes
